One assay addresses TDP-43 1-414 (UniProt Q13148). Put plainly: sedimentation assay, supernatant by SDS-PAGE. The settings on record: reference: unmodified TDP1-414; sites S48.
Assay [1] concerns the target TDP-43 NTD, 1-80 (UniProt Q13148). Put plainly: BS3 crosslinking, SDS-PAGE. The settings on record: reference: unmodified TDP1-80; sites S48.
Assay [2] has the same target. Put plainly: size exclusion chromatography. Conditions: reference: unmodified TDP1-80; sites S48.

On to “TDP-43 1-414 (from UniProt Q13148) TDP1-414(pS48)”, for which, in the assay with TDP-43 1-414, the “binding against the reference” value is recorded as “weaker”. “TDP-43 NTD, 1-80 (from UniProt Q13148) TDP1-80(pS48)”: the “binding against the reference” value is on record as “weaker” in the assay with TDP-43 NTD, 1-80 [1] and “weaker” with TDP-43 NTD, 1-80 [2].

The values are drawn from paper PMC12032424.
